Experimental data taken from the RNAGym collection of RNA variant scans (doi:10.1073/pnas.2313332121).

B1: TPR t1 (parent)
chain: GACCAAUCUGCCCUCAGAGCUCGAGAACAUCUUCGGAUGCAGAGGAGGCAGGCUUCGGUGGCGCGAUAGCGCCAACGUCCUCAACCUCCAAUGCAUCCCACCACAUGAUGAUGCCUGAAGAGCCUUGGUUUUUUG

Variants of: B1
Assay: polymerase ribozyme fitness, log enrichment relative to wild type (log ratio); higher = more active; in vitro selection for triplet polymerase activity
In short: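 Fitness compares each genotype's enrichment to that of the wild type on a logarithmic scale, averaging replicates with inverse-variance weights. The logarithm is base 2. Enrichment came from Illumina sequencing of input and output libraries after one triplicate round of in vitro selection, which included frozen incubation at −7 °C, of PCR-built, transcribed mutant libraries of each subunit of a heterodimeric triplet polymerase ribozyme. Only genotypes with ≥10 input reads and ≥1 read per output were kept.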

Variant	polymerase ribozyme fitness (log ratio)
GACCAAUCUGCCCUCAGAGCUCGAGAACAUCUUCGGAUGCAGAGGAGGCAGGCUUCGGUGGCGCGAUAGCGCCAACGUCCUCAACCUCCAAUGCAUCCCACCACAUGAUGAUGGCUUAAGAGCCUUGGUUUUUUG [C114G G117U]	-3.8
GACCAAUCUGCCCUCAGAGCUCGAGAACAUCUUCGGAUGCAGAGGAGGCAGGCUUCGGUGGCGCGAUAGCGCCAACGUCCUCAACCUCCAAUGCAUCCCACCACAUGAUGAUGGCUAAAGAGCCUUGGUUUUUUG [C114G G117A]	-5.27
GACCAAUCUGCCCUCAGAGCUCGAGAACAUCUUCGGAUGCAGAGGAGGCAGGCUUCGGUGGCGCGAUAGCGCCAACGUCCUCAACCUCCAAUGCAUCCCACCACAUGAUGAUUCCUGAAGAGCAUUGGUUUUUUG [G113U C124A]	-1.53
GACCAAUCUGCCCUCAGAGCUCGAGAACAUCUUCGGAUGCAGAGGAGGCAGGCUUCGGUGGCGCGAUAGCGCCAACGUCCUCAACCUCCAAUGCAUCCCACCACAUGAUGAUGUCUGGAGAGCCUUGGUUUUUUG [C114U A118G]	-2.12
GACCAAUCUGCCCUCAGAGCUCGAGAACAUCUUCGGAUGCAGAGGAGGCAGGCUUCGGUGGCGCGAUAGCGCCAACGUCCUCAACCUCCAAUGCAUCCCACCACAUGAUGAUUCCUGAAAAGCCUUGGUUUUUUG [G113U G120A]	-2.2
GACCAAUCUGCCCUCAGAGCUCGAGAACAUCUUCGGAUGCAGAGGAGGCAGGCUUCGGUGGCGCGAUAGCGCCAACGUCCUCAACCUCCAAUGCAUCCCACCACAUGAUGAUGACUGAAGAGCCUUGGUUCUUUG [C114A U131C]	-1.66
GACCAAUCUGCCCUCAGAGCUCGAGAACAUCUUCGGAUGCAGAGGAGGCAGGCUUCGGUGGCGCGAUAGCGCCAACGUCCUCAACCUCCAAUGCAUCCCACCACAUGAUGAUCCCUGAAAAGCCUUGGUUUUUUG [G113C G120A]	-2.39
GACCAAUCUGCCCUCAGAGCUCGAGAACAUCUUCGGAUGCAGAGGAGGCAGGCUUCGGUGGCGCGAUAGCGCCAACGUCCUCAACCUCCAAUGCAUCCCACCACAUGAUGAUGACUGAUGAGCCUUGGUUUUUUG [C114A A119U]	-3.28
GACCAAUCUGCCCUCAGAGCUCGAGAACAUCUUCGGAUGCAGAGGAGGCAGGCUUCGGUGGCGCGAUAGCGCCAACGUCCUCAACCUCCAAUGCAUCCCACCACAUGAUGAUGACUGAAGAGCCUUGGUUUUAUC [C114A U133A G135C]	-1.08
GACCAAUCUGCCCUCAGAGCUCGAGAACAUCUUCGGAUGCAGAGGAGGCAGGCUUCGGUGGCGCGAUAGCGCCAACGUCCUCAACCUCCAAUGCAUCCCACCACAUGAUGAUUCCAGAAGAGCCUUGGUUUUUUG [G113U U116A]	-4.64
GACCAAUCUGCCCUCAGAGCUCGAGAACAUCUUCGGAUGCAGAGGAGGCAGGCUUCGGUGGCGCGAUAGCGCCAACGUCCUCAACCUCCAAUGCAUCCCACCACAUGAUGAUUCAUGAAGAGCCUUGGUUUUUUG [G113U C115A]	-4.42
GACCAAUCUGCCCUCAGAGCUCGAGAACAUCUUCGGAUGCAGAGGAGGCAGGCUUCGGUGGCGCGAUAGCGCCAACGUCCUCAACCUCCAAUGCAUCCCACCACAUGAUGAUUCCUGAGGAGCCUUGGUUUUUUG [G113U A119G]	-1.66
GACCAAUCUGCCCUCAGAGCUCGAGAACAUCUUCGGAUGCAGAGGAGGCAGGCUUCGGUGGCGCGAUAGCGCCAACGUCCUCAACCUCCAAUGCAUCCCACCACAUGAUGAUUCCUGACGAGCCUUGGUUUUUUG [G113U A119C]	-5.27
GACCAAUCUGCCCUCAGAGCUCGAGAACAUCUUCGGAUGCAGAGGAGGCAGGCUUCGGUGGCGCGAUAGCGCCAACGUCCUCAACCUCCAAUGCAUCCCACCACAUGAUGAUCCCUGAAGAGCCUCGGUUUUUUG [G113C U126C]	-2.46
GACCAAUCUGCCCUCAGAGCUCGAGAACAUCUUCGGAUGCAGAGGAGGCAGGCUUCGGUGGCGCGAUAGCGCCAACGUCCUCAACCUCCAAUGCAUCCCACCACAUGAUGAUUCCUGAAGAGCCUUGGUUUUAUG [G113U U133A]	-3.57
GACCAAUCUGCCCUCAGAGCUCGAGAACAUCUUCGGAUGCAGAGGAGGCAGGCUUCGGUGGCGCGAUAGCGCCAACGUCCUCAACCUCCAAUGCAUCCCACCACAUGAUGAUGGCUGAAAAGCCUUGGUUUUUUA [C114G G120A G135A]	-4.92
GACCAAUCUGCCCUCAGAGCUCGAGAACAUCUUCGGAUGCAGAGGAGGCAGGCUUCGGUGGCGCGAUAGCGCCAACGUCCUCAACCUCCAAUGCAUCCCACCACAUGAUGAUUCCUGAAAAGCCUUGGUUUAUUG [G113U G120A U132A]	-3.83
GACCAAUCUGCCCUCAGAGCUCGAGAACAUCUUCGGAUGCAGAGGAGGCAGGCUUCGGUGGCGCGAUAGCGCCAACGUCCUCAACCUCCAAUGCAUCCCACCACAUGAUGAUGGCUGAAGAGCCUUGUAUUUUUG [C114G G128U U129A]	-5.24
GACCAAUCUGCCCUCAGAGCUCGAGAACAUCUUCGGAUGCAGAGGAGGCAGGCUUCGGUGGCGCGAUAGCGCCAACGUCCUCAACCUCCAAUGCAUCCCACCACAUGAUGAUGUCUGAAGAGCAUUGGUUUUUUG [C114U C124A]	-1.04
GACCAAUCUGCCCUCAGAGCUCGAGAACAUCUUCGGAUGCAGAGGAGGCAGGCUUCGGUGGCGCGAUAGCGCCAACGUCCUCAACCUCCAAUGCAUCCCACCACAUGAUGAUCCCUGAAGAACCUUGGUUUUUUU [G113C G122A G135U]	-4.5
GACCAAUCUGCCCUCAGAGCUCGAGAACAUCUUCGGAUGCAGAGGAGGCAGGCUUCGGUGGCGCGAUAGCGCCAACGUCCUCAACCUCCAAUGCAUCCCACCACAUGAUGAUUCCUGAAGAGCCUUGGGUUUUUG [G113U U129G]	-5.28
